Measured values reported in the domain aggregation screens of Martell et al. (2025).
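Note: 20 min heating vs room temperature control held 20 min.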

Test: soluble fraction after stress (log2 fold change); higher = more stays soluble; pooled small domains, quantitative proteomics
Conditions: stress: 75 degC
With “HMVAPKDIVMPSFVGKKYTDVVNTPNSSYTFEFKKDEKNSSDYAVGFIMDQKPKAGETVKSNATVTLIVSK” the “soluble fraction (log2)” value was 0.0603. With “HMVAPNSEATTKLIIEKTKYANESPAILMGFKATATMLMAKHVVLPTSKYAYFNEGRALLEKAIK” the “soluble fraction (log2)” value was 0.154. For “HMVAREAYTTQNLTDVFSISRQAVEKRAKREGWQSVPRKGRGGGKLWVVSSMPAETRDLLASLLLRK”, the “soluble fraction (log2)” value was -0.608. In the case of “HMVDALYGQGARVMRDFSEGSGIVKLDNGETWTGRLSPAASGASLYVGDRVIVTRIDGAIAEVTPP”, the “soluble fraction (log2)” value is reported as 0.00352. In the case of “HMVDDNFGLGEVTDQNYLTVLGRALDLIGWTDEQADSYSLKTFGVPHWDELGRSQAEKLVAHLIGLLKEQM”, the “soluble fraction (log2)” value is reported as 0.0834. In the case of “HMVDIEQAEFLSRQFDLLLARLDDPTIEWQDIADIRSEYTGENEHRDTIRKGSKLFYEYLQAGWIKN”, the “soluble fraction (log2)” value is reported as -0.678. In the case of “HMVDISLSDRELEVLRLLAMGLSNADISRRLYLSEGTIRNYMSGIFSKLNVSDRTQAVVIALREGLVNL”, the “soluble fraction (log2)” value is reported as -1.56. In the case of “HMVDPAEASKRAREYLDALPADDLKDVIRQFSATLAEGSVVLGYFQRSGLKSKVVKTALEQFVASTILSK”, the “soluble fraction (log2)” value is reported as -1.16. For “HMVDPAFLAWQQKPENTWFGTDRRKTALAIAIAEEIRNDPANSNLVGAAFYARVAEETEETLN”, the “soluble fraction (log2)” value was -0.546. For “HMVDPWLEQVHRASAAYATAHGSARIPTTHPDLGWKVVRVRQRHRKGLLSDEWVAKFEALPGWTWEPK”, the “soluble fraction (log2)” value was -1.52. In the case of “HMVDQAFQTQLKNIQARTGKNLDELYAFIRASGLVKHGEIRDLAKRELSLGHGDANTLAKFYLESLAAAA”, the “soluble fraction (log2)” value is reported as 0.0377. With “HMVDQKLIQASAEHSGIRIDRFLSEQLPEHSRSYIQKLIKDGQVSIGGKAVKSNYKIAGTEEISLLIPDQ” the “soluble fraction (log2)” value was -0.0516. For “HMVDTSDLPAIVEKVFADNPEQVNDILNGKDRVKGFLVGQIMKATRGQAPPDEVNKLIDATLEKMKAA”, the “soluble fraction (log2)” value was 0.239. In the case of “HMVDYIGRRGVMLSTVSEEKMGNAEVVIDGNSYNIYVKSLDGSTIAYHQEILIINKSKDNNYFLVQIY”, the “soluble fraction (log2)” value is reported as -2.81. In the case of “HMVEAIDQALIEKQIQAVLQENSAAVKKYQAGKTEVLAFLIGQSMRKIAKKVDANLVKNILLEQLKNK”, the “soluble fraction (log2)” value is reported as 0.228. With “HMVEDFSEVLLQYIREQGGAIALNDKTDAGVIYDTFGVSKKTFKKAVGDLYKKRLIVLGDEGIRLA” the “soluble fraction (log2)” value was -0.757. For “HMVEIGENIKKLRKAKRMTQKEVANQLNVTPQTISKWERNISYPDLDMLVKLSQLFHISTDALL”, the “soluble fraction (log2)” value was -0.553. For “HMVELNDNEKIVYDILKETEKIHIDELTAKVQLTQSILSGALVQMEMKGMIVSLPGKMYKLL”, the “soluble fraction (log2)” value was -1.65. For “HMVELRDGSLPLARGSVGDLVAEVQRKLGVAADGIFGPQTERAVRAFQARAGLASDGIVGPLTWSALFGA”, the “soluble fraction (log2)” value was -0.516. For “HMVELVKVPALQGETVDEAIADIKDAGLEPGQVRYVESDLPKDTVTYQSVDAGEQVKAGTVINLQASKGP”, the “soluble fraction (log2)” value was 0.765. For “HMVEMSNMELVREQYFQNLIYNVGDWVKDSKTEITGEVVKRGTNYLTIVQEDFTLHKVWLEDAESME”, the “soluble fraction (log2)” value was -0.511. In the case of “HMVEPDELTEREREVLQFVARGLSNKEIGAALALSPHTIKAHLRSILDKLHLRSRAEAAAWAVRSGLS”, the “soluble fraction (log2)” value is reported as -0.344. In the case of “HMVEPLIVRNFSINYADIDKLETKIKDYISNSDKSGVNRGRVTSDTRTNMLIVTETASKLAQVEQLLKALD”, the “soluble fraction (log2)” value is reported as -0.279. For “HMVEPTDFTYLKAEVETAKALKQADYTVATWKSFAGELAEAEEVIAKTDASQAEVNEALSHLQAAEKELV”, the “soluble fraction (log2)” value was 0.23. With “HMVETDQESSLIQAIYKYFEITGDNTFFDEKVGEKTVADRMEWAMDYLIQNRFSEEYGLIWGA” the “soluble fraction (log2)” value was -0.285. With “HMVFADRLRALRKKSGLTQDEFSKQTGIGRSAVGMYESGKREPNYTTLSKVARFYHVSTDYLLGRTDTP” the “soluble fraction (log2)” value was -1.52. In the case of “HMVFQTAAEKAYEIISKKIMKGEYEPGMRLVRRQLAQELGVSPIPILEAMKRLEQDGLIEYKAHWGSIVTI”, the “soluble fraction (log2)” value is reported as -2.29. With “HMVFRFELQPSSATPLYRQIVEQVTRAVAAGVLRDGEELPSVRAVAQEYVINPMTVSKAYSLLEAQSI” the “soluble fraction (log2)” value was -0.366. With “HMVFSNLGSRGEEVRQIQTKLKELGYLQGNVDGIYGNQTKQAVTAFQRDHGLSADGIAGEKTLAALGIG” the “soluble fraction (log2)” value was 0.636. For “HMVGAEDISKPMNLGALMRTAHAFGASFFFTINAHPKVRHAYNSDTSRSFDHMPYYPWDTMEE”, the “soluble fraction (log2)” value was 0.151.
